Experimental data taken from the nanobody polyreactivity screen of Harvey et al. (2022).

Assay: yeast display, Sf9 membrane polyspecificity reagent, FACS + sequencing; frameworks hold sequencing errors
Method in brief: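 A nanobody's polyreactivity label depends on the gate it was sorted from. Yeast display cells were stained with 10% biotinylated, detergent-solubilized Sf9 membrane reagent for 1 hour at 4 °C, enriched on streptavidin microbeads and sorted by FACS. The low and high (top ~1%) gates were set on anti-HA fluorescence for expression and streptavidin fluorescence for reagent binding.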

| Sequence | polyreactivity (PSR sort gate) |
| --- | --- |
| QVQLVESGGGLVQAGGSLRLSCAASGSIFVINAMGWYRQAPGKERELVAAIDWSGDSTYYADSVKGRFTISRDNAKNTVYLQMNSLKPEDTAVYYCAADLDSRGTYGRYEYWGQGTQVTVSS | low polyreactivity |
| QVQLVESGGGLVQAGGSLRLICAASGLTFFLYPMGWYRPAPGKERELVAAISSRGGSTYYADSVKGRFTISRDKAKNTVYLQMYSLKPEDTAVYYCADATKGDEDYWGQGTQVTVSS | high polyreactivity |
| QVQLVESGGGLVQAGGSLRLSCAASGRTFSAYVMGWYRQAPGKEREFVATIRRTGSTYYADSVKGRFTISRDNAKNTVYLQMNSLKPEDTAVYYCNRGSFPSVQGSYPGYGYWGQGTQVTVSS | high polyreactivity |
| QVQLVESGGGLVQAGGSLRLSCAASGRTFNYYTMGWNRQAPGKEREFVAAITISGARTYYADSVKGRFTISRDNAKNTVYLQMNSLKPEDTAVYYCAARRRYRSRVTPVGYNYWGQGTQVTVSS | high polyreactivity |
| QLQLVESGGGLVQAGGSLRLSCAASGSTYGPYAMGWYRQAPGKERELVSAITISGDSTNYADSVKGRFTISRDNAKNTVYLQMNSLKPEDTAVYYCAAAYYWLQSWYDYWGQGTQVTVSS | low polyreactivity |
| QVQLVESGGGLVQAGGSLRLSCAASGSIFYFYAMGWYRQAPGKERELVAAITSGGSTYYADSVEGRFTISRDNAKNTVYLQMNSLKPEDTAVYYCNAVSSYGYDYWGQGTQVTVSS | high polyreactivity |
| QVQLVESGGGLVQAGGSLRLSCAASGIIFAANAMGWYRQAPGKERELVAAISWSGTSTYYADSVKGRFTISRDNAKNTVYLQMNSLNPEDTAVYYCAVDYYLWSGYSYLYEFEYWGQGTQVTVSS | high polyreactivity |
| QVQLVESGGGLVQAGGSLRLSCAASGFTFGAYAMGWYRQAPGTERELVAAISYRGGRTYYADSVKGRFTISRDNAKNTVYLQMNSLKPEDTAVYYGNTVYLVTWRVKGYYWGQGTQVTVSS | low polyreactivity |
| QVQLVESGGGLVQAGGSLRLSCAASGYIFVRNAMGWYRQAPGKERELVAAISRTDGTTYYADSVKGRFTISRDNAKNTVYLQMNSLKPEDTAVYYCAADYLRAPYYQYEYWGQGTQVTVSS | low polyreactivity |
| QVQLVESGGGLVQAGGSLRLSCAASGSIFVSYAMGWYRQAPGKERELVAAITVSGGSTYYADSVKGRFTISRDNAKNTVYLQMNSMKPEDTAVYYCAADSWDDWVVEFYYWGQGTQVTVSS | low polyreactivity |
| QVQLVESGGGLVQAGGSLRLSCAASGFTLRRNAIGWYRQAPGKERELVAAISSSGSTYYADSVKGRFTISRDNAKNTVYLQMYSLKPEDTAVYYCAAQPGRRAGRSGFDYWGQGTQVNVSS | high polyreactivity |
| QVQLVESGGGLVQAGGSLRLSCAASGFIFSKYVMGWSRQAPGKERELVAAITRSGSSTYYADSVKGRFTISRDNAKNTVYLQMNSLKPEDTAVYYCAADGGYYDDDYWGQGTQVTVSS | high polyreactivity |
| QVQLVESGGGLVQAGGSLRLSCAASGLTFVQNAMGWYRQAPGKERELVAAISTSGGSTYYADSVKGRFTISRDNAKNTVYLQMNSLKPEDTAVYYCAAYPRSWWRGYDYWGQGTQVTVSS | high polyreactivity |
| QVQLVESGGGLVQAGGSLRLSCAASGFIFTYYAMGWYRQAPGKERELVARITSGGASTYYADSVKGRFTISRDNAKNTVYLQMNSLKPEDTAVYYCAAQARGWGYDYWGQGTQVTVSS | low polyreactivity |
| QVQLVESGGGLVQAGGSLRLSCAASGSTFSPYALGWYRQAPGKERELVAGITSSGGDTYYADSVKGRFTISRDNAKNTVYLQMNSLKPEDTAVYYCAADWWVLGQLWFDYWGQGTQVTVSS | low polyreactivity |
| QVQLVESGGGLVQAGGSLRLSCAASGSTFQYNAMVGYIQAPGKERELVAAISRGSSTKYADSVKGRFTISRDNAKNTVYLQMNSLKPEDTAVYYCAVDTRPSHRTRAYYYWGQGTQVTVSS | high polyreactivity |
| QVQLVDSGGGLVQAGGRLRLTCAASGSTFGPNAMGWYSPAPGKERELVADISGGSTNYADSVKGRFTISRDNAKNTVYLQMKSLKPEDTAVYSCATDDHVEPVRRLYGYWGQGTQVTVSS | low polyreactivity |
| QVQLVESGGGVVQAGGSLRLSCAASGRTFPGNAMGWYRQAPGKERELVASITWSTGSTYYADSVKGRFTISRDNAKNTVYLQMNSLKPEDTAVYYCAADQSVRSYQYSVHRGYWGQGTQVTVSS | high polyreactivity |
| QVQLVESGGGLVQAGGSLRLSCAASGFTFRSNMGWYRQAPGKEREFVAAITKSGGSTYYADSVKGRFTISRDNAKNTVYLQMNSLKPEDTAVYYCATKVDTYVFRYYYWGQGTQVTVSS | high polyreactivity |
| QVQLVESGGGLVQAGGSLRLSCAASGRTFGNNAMGWYRQAPGKERELVAAITARGSRTYYADSVKGRFTISRDNAKNTVYLQMNSLKPEDTAVYYCNAGVRRYYRSLHSIGIYYYWGQGTQVTVSS | high polyreactivity |
| QVQLVESGGGLVQAGGSLRLSCAASGSTFYPYAMGWYRQAPGTEREFVAAITWSGGSTYYADSVKGRFTISRDNAKNTVYLQMNSLKPDDTAVYYCNAVVATSKYTDYYWGQGTQVTVSS | low polyreactivity |
| QVQLVESGGGLDQAGGSLRLSCAASGITFGFYTMGWYRQAPGKERELVAAITSGGSTSYADSVKGRFTISRDNAKNTVYLQMNSLKPEDTAVYYCAADYLYPFPPYQYWKQSYDYWGQGTQVTVSS | low polyreactivity |

| Sequence | polyreactivity (PSR sort gate) |
| --- | --- |
| QVQLVESGVGLVQAGGTLRISCAASGRISRGYAMGWYRQAPGKERELVAAISRRGDSTYYADSVKGRFTISRDNAKYTVYLQMNSLKPEDTAVYYCAARNGGRYAAGLDYWGQGTHVTVSS | high polyreactivity |
| QGQHVESGGGLVQARGSRRLSCAPSGRTFGYDAMGWYRQAPGKERELVAAINYSGVSTYYADSVKGGFTISRDTAKNTVYLQRNSLKPEDTAGSYCAAKGRYSVYSRNSWGQGTQVTVSS | high polyreactivity |
| QVQLVESGGGLVQAGGSLRLSCAASGRIFIRYAMGWYRQAPGKERELVASISRNGGTTYYADSVKGRFTISRDNAQNTVYLQMNSLKPEDTAVYYCNTVHRSVDKAGYDYWGQGTQVTVSS | high polyreactivity |
| HVQLVESGGRLVQAGGSLRLSSAASGLNFYYYAIGWSRQAPGKERELVAAISRRGGSTYYADSVKGRFTISRDNAKNTVYLQMNSLKPEVTEVYYCAAKSGSFVHGGYQTPVYGSDYWGQGTQVTVSS | high polyreactivity |
| QVQLVETGGGIFQAGGSIRLSCAASGRTFSTYAKGWYRQAPGKERELVAGISRGGGSTYYADSVKGRFTISRDNAKNTVYLLMNSLKPEDTAVYYCAAKRPQYYVQYGYWGQGSQVTVSS | high polyreactivity |
| QVQLVESGGGLVQAGGSLRLSCAASGIIFRYNTMGWYRQAPGKERELVAAITRSGGSTYYADSVKGRFTISRDNAKNTVYLQMNSLKPEDTAVYYCAAQGYSYRHTAFEYWGQGTQVTVSS | high polyreactivity |
| QVQLVESGGGLVQAGGSLRLSCAASGFTFGYYAMGWYRQAPGKERELVAAISSRGSGTYYADSVKGRFTMSRDNAKNTVYLQLNSLKPEDTAVYYCARPSALLGYWGQGTQVTVSS | low polyreactivity |
| QVQLVESAAGLVQAGGSLRLSGAASGRIFRYYAMGCYRQAPGKEREFVAGITWSGGRTYYADSVKGRFTISRANAKNTVYLQMNTLKREDTAVYYCAADGWGYSFQWQDHDYWGQGTQVTVSS | low polyreactivity |
| QVQLVESGGGLVQAGGSLRLSCAASGIIFDDYAMGWYRQAPGKERELVAAITDSGGSTYYADSVKGRFTISRDNAKNTVYLQMNSLKPEDTAVYYCAARTQRRVNRVGYRSNYYYWGQGTQVTVSS | low polyreactivity |
| QVQLVETGRGLFHAGGSLRLSCAASGGIFRVYAMGWYIPAPGKERELVAAISRSGSSTYYADSVKGRFTISRDNAKNTVYLQMNSLKPEDTAVYYCNAYSQYWLGNNYWGQGTQVTVSS | high polyreactivity |
| QVQLVESGGGLVQAGGSLRLSCAASGNTFRWNAMGWYRQAPGKERELVAGISIDDGSNYADSVKGRFTISRDNAKKTVYLQMNSLTPEDTAVYDCNRDWALYVFGRHYHAYYSWGQGTHVTVSS | low polyreactivity |
| QVQLVESGGGLVQAGGSLRLICAASGSTFHAYAMGWYRQAPGKERDLVAAITWSGDSTYADSVKGRFTISRDKAKNTFFLQMNSLKPEETAVYDCACRGFLGHWPRPSYDYWGQGTQVTVSS | low polyreactivity |
| QVQLVESGGGLVQAGGSLRLSCAASGLTFYSNAMGWYRQAPGKERELVAAITWRSVRTYYADSVKGRFTISRDNAKNTVYLQMNSLKPEDTAVYYCAAASASRHGEYDYWGQGTQVTVSS | low polyreactivity |
| QVQLVESGGGLVQAGGSLRLSCAASGRTFTSYAMGWYRQAPGKERELVATISTGGSTNYADSVKGRFTISRDNAKNTVYFQMNSLKPEDTAVYYCAAQVDGKRQYYRYDYWGQGTQVTVSS | low polyreactivity |
| QVQLVESGGGLVQAGGSLRLSCAASGSTFGKYVMGWYRQAPGKERELVAAISRSGGSTYYADSVKGRFTISRDNAKNTVYFQMNSLKPEDTAVYYCATVGYGYDYWGQGTQVTVSS | high polyreactivity |
| QVQLVESGGGLVQAGGSLRLSCAASGSIFGDNAMGWYRQAPGKERELVAAIDSDGSTNYADSVNGRFTISRDNAKNTVYLQMNSLKPEDTAVYYCAASEPYSKPYTYDYWGQGTQVTVSS | low polyreactivity |
| QVQLVESGGGLVQAGGSLRLSCAASGSIFGRYAKRWYRQAPGKERELVAAISWNGGSTYYADSVKGRFTISRDNAKKTVDLQMNSLKPEDPAVYYCAVLSWWTKLSRRFYYWGQGTQVTVSS | high polyreactivity |
| QVQLVESGGGLVQAGGRLRLSCAASGFTFSVYPMGWYIQAPGKERELVAAISWSGGSTYYADSVKGRFTISRDNAKNTVYVQMNSLKPEDTAVYYCNAYFSYKYRYPEDYWGQGTQVTVSS | high polyreactivity |
| QLQLVESGGGLVQEGGSLRLSCAASGSTFVYNDKGWYRQAPGKDRELVAAITSGVRTYYSDYVKGRFTISRDNAKNTVYLQMNSLKPEDTALYYCGTGWRYAQYYYWGQGTQVTVSS | high polyreactivity |
| QVQLVESGGGLVQAGCSLRLSCAASGSTLSFNAMGWYRQAPGKERELVAGITYSGGSTYYADSVKGRFTISRDNAKNTVYLLMNSLKPEDTAFYYCNKACGVYYGHLDYWGQGTQVTVSS | low polyreactivity |
| QVQLVESAGGLVQAGGRLRLSCAASGSTFGIYAMGWYRQAPGKERELVAAISSGGSTNYADSVKGRFTISRDNAKNTVYLQMNSLKPEDTAVYYCAVESVYEYGGYVDSAYDYWGQGTQVTVSS | low polyreactivity |
